# Where no end group is shown, it is not given here.
# T1: K3GW (acetylated N-terminus)
# T1 peptide: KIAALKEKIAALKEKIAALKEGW
# Target: T1, K3GW
# Assay: ITC
binder,measurement,value
Ac-EIAALEKEIAALEKEIAALEKGY [E3GY],Kd,73 nM
same,dH,-18.4 kcal/mol
